The target of this assay is T1, EphB4 CF2 protein (ECD version with deleted globular domain, 6xHis tagged) (human, UniProt P54760 16-537).
T1 construct: The entry is the precursor
T1 sequence: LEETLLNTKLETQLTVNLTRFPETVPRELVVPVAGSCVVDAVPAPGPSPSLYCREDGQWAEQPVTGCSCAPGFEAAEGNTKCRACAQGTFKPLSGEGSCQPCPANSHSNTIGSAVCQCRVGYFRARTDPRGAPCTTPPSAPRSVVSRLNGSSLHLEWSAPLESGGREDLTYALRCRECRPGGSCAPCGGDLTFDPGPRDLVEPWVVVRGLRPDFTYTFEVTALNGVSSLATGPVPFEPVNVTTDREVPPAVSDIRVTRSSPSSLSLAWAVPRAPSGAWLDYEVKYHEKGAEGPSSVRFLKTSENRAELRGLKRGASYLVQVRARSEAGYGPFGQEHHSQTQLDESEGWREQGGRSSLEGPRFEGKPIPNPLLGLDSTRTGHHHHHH
In words: Ephrin B2-AP binding to B4 proteins immobilized on Ni2+ resin or nitrocellulose membrane. The protocol:
To confirm ability of the purified recombinant proteins to bind Ephrin B2, they were tested in an in vitro binding assay. As expected, GC, GCF1 and GCF2, but not CF2 are binding the cognate ligand Ephrin B2 as confirmed by interaction between Ephrin B2-alkaline phosphatase (Ephrin B2-AP) fusion protein with the B4 proteins immobilized on Ni²⁺ resin or on nitrocellulose membrane (FIG. 17).

Results on 1 molecule are retold here after patent US20060204512A1 (VASGENE THERAPEUTICS, published 2006).

B1: B2EC-AP reagent (protein fusion of Ephrin B2 ectodomain with placental alkaline phosphatase) (ligand, UniProt P52799 28-229, looked up)
chain: IVLEPIYWNSSNSKFLPGQGLVLYPQIGDKLDIICPKVDSKTVGQYEYYKVYMVDKDQADRCTIKKENTPLLNCAKPDQDIKFTIKFQEFSPNLWGLEFQKNKDYYIISTSNGSLEGLDNQEGGVCQTRAMKILMKVGQDASSAGSTRNKDPTRRPELEAGTNGRSSTTSPFVKPNPGSSTDGNSAGHSGNNILGSEVALFA
notes: extracellular domain; also called B2-AP; Ephrin B2-AP; not shown: placental alkaline phosphatase
As for B1, the binding result is “no binding”.
